Experimental data taken from article PMC11119335.

Columns and labels:
OsDREB1C-m2 (R12K) = OsDREB1C-m2 (R12K) (Oryza sativa, UniProt Q9LWV3 1-214, R45K); assay: competition
OsDREB1C (WT) [1] = biological target: T1, OsDREB1C (WT) (Oryza sativa, UniProt Q9LWV3 1-214); assay: competition
AtCBF1 [2] = biological target: T2, AtCBF1 (Arabidopsis thaliana, UniProt P93835 1-213); assay: competition
OsDREB1C-m1 (A10_) = OsDREB1C-m1 (A10_) (Oryza sativa, UniProt Q9LWV3 1-214, del43-43); assay: EMSA
OsDREB1C (WT) [3] = biological target: T1, OsDREB1C (WT); assay: EMSA
AtCBF1 [4] = biological target: T2, AtCBF1; assay: EMSA

T2 sequence (P93835 whole entry): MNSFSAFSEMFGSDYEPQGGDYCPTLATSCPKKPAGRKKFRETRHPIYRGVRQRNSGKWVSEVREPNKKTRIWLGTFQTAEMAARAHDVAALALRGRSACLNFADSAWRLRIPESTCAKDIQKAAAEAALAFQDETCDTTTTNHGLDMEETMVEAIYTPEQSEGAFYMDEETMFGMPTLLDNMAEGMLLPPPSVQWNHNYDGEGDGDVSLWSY

Row | Binder | binding result (OsDREB1C-m2 (R12K)) | binding result (AtCBF1 [2]) | other results
1 | OsNR2 GCCGAC competitor, 29 bp (dsDNA) DNA 1: CAGGAGCTCGATGTAGCCGACCTCGTCGA DNA 2: TCGACGAGGTCGGCTACATCGAGCTCCTG | binds | binds | binding result (OsDREB1C (WT) [1]): binds
2 | OsNR2 GCCGAC probe, 29 bp (dsDNA) DNA 1: CAGGAGCTCGATGTAGCCGACCTCGTCGA DNA 2: TCGACGAGGTCGGCTACATCGAGCTCCTG | – | – | binding result (OsDREB1C-m1 (A10_)): binds; binding result (OsDREB1C (WT) [3]): binds
3 | ACCGAC competitor, 29 bp (dsDNA) DNA 1: CAGGAGCTCGATGTAACCGACCTCGTCGA DNA 2: TCGACGAGGTCGGTTACATCGAGCTCCTG | binds | binds | –
4 | ACCGAC probe, 29 bp (dsDNA) DNA 1: CAGGAGCTCGATGTAACCGACCTCGTCGA DNA 2: TCGACGAGGTCGGTTACATCGAGCTCCTG | – | – | binding result (AtCBF1 [4]): binds
